In publication PMC10530652 (BME Frontiers, 2021):

Columns and labels:
Crl:WI(Han) rats = assay: Single intratracheal administration toxicity study of FIB One; format: in vivo; conditions: 100 µg/animal (500 µg/mL)
Protocol: Assessment of toxicity of FIB One was based on clinical signs, body weight, food consumption and clinical and anatomic pathology evaluations. Complete necropsies were performed on all animals with a recording of macroscopic abnormalities for all tissues. Organ weights and microscopic examinations were conducted as indicated.

patients = assay: Clinical observations in patients after procedure; format: in vivo, human
From the text: Table S2: Clinical observations.

[1] = Stability study of FIB One aqueous formulation (HPLC); format: physicochemical; conditions: for Conc. / pH: aqueous formulation; for Conc. / ∆% / Total imp. RRT(%): HPLC; for ∆%: change of conc.
[2] = test system: patients with fibroproliferative lung disease; assay: Adverse events in the FIB One clinical study; format: in vivo, human
Protocol: In initial exploratory testing, 8 patients with either endobronchial tumour or parenchymal fibrosis underwent FIB One microdosing (<100 μg, <5 mL). FIB One was administered using a delivery catheter (ERBE APC catheter or TLBC) passed out of the working channel of the wedged bronchoscope into the bronchus allowing distal dissipation of the compound for alveolar imaging or applied directly onto visible tumour. FCFM imaging was performed pre- and postinstillation of FIB One, with the fibre tip positioned at the bronchial mucosa or passed into the alveolar region following transbronchial puncture, as appropriate for the clinical indication. Images were recorded for at least 30 s at 12 frames/second.
In subsequent testing the Miniaturized Alveoflex™-TLBC combination replaced the Alveoflex™ fibre. The entire apparatus was passed transbronchially to allow direct alveolar imaging before localised delivery of agents. Once transbronchial pass was accomplished, baseline lung imaging was recorded for at least 30 sec. A 500 μL microdose of either AZD1236 (14 μg/mL) or sterile PBS (control) was administered under direct observation, and further imaging was obtained for >60 sec. 500 μL of FIB One (20 μg/mL) (delivered only after at least 60s to allow MMP inhibition) was then dosed to the same area with a further 90-120 sec of imaging captured. If considerable movement due to breathing or coughing was encountered, imaging was halted and a new segment identified. Up to 6 segments of interest were investigated per patient determined by patient tolerance.
Table S5: Patient demographics and AEs part B. Three patients reported adverse events within the 24h period post procedure all of which are commonly associated with flexible bronchoscopy.

[3] = test system: MMP activity in the alveolar space; assay: In-human alveolar FCFM imaging after endobronchial delivery of FIB One; format: in vivo; conditions: FIB One microdose <100 μg, bolus, patients with parenchymal fibrosis, n=4
Protocol: All participants were scheduled for routine, clinical diagnostic flexible bronchoscopy in our institution with a known or suspected diagnosis of fibrosis or lung cancer. All eight patients had computerized tomography performed prior to bronchoscopy and regions of active disease identified for targeted investigation.
Bronchoscopy was undertaken in an outpatient suite using local anaesthetic and conscious sedation or in theatre under general anaesthetic. FCFM was performed using a clinically approved confocal laser scanning endomicroscopy device (Cellvizio®, Mauna Kea Technologies) with a compatible imaging fibre (Alveoflex™ or Miniaturized Alveoflex™, Mauna Kea Technologies).
In initial exploratory testing, 8 patients with either endobronchial tumour or parenchymal fibrosis underwent FIB One microdosing (<100 μg, <5 mL). […] Images were recorded for at least 30 s at 12 frames/second.
All video sequences were assessed by two clinicians with clinical experience of pulmonary endomicroscopy. […] Videos were assessed to ensure stability throughout the imaging procedure. […] All video files were analysed using the Cellvizio® Viewer image processing software from Mauna Kea Technologies, Paris. […] The median RFU was calculated for each category and used as a comparative value between groups.

[4] = fridge 2-8 °C, 1m, 1st of 2 vials
[5] = fridge 2-8 °C, 1m, 2nd of 2 vials
[6] = fridge 2-8 °C, 3m, 1st of 2 vials
[7] = fridge 2-8 °C, 3m, 2nd of 2 vials
[8] = fridge 2-8 °C, 6m, 1st of 2 vials
[9] = fridge 2-8 °C, 6m, 2nd of 2 vials
[10] = fridge 2-8 °C, 9m, 1st of 2 vials
[11] = fridge 2-8 °C, 9m, 2nd of 2 vials
[12] = fridge 2-8 °C, 10m, 1st of 2 vials
[13] = fridge 2-8 °C, 10m, 2nd of 2 vials
[14] = fridge 2-8 °C, 12m, 1st of 2 vials
[15] = fridge 2-8 °C, 12m, 2nd of 2 vials
[16] = fridge 2-8 °C, 21m, 1st of 2 vials
[17] = fridge 2-8 °C, 21m, 2nd of 2 vials
[18] = fridge 2-8 °C, 24m, 1st of 2 vials
[19] = fridge 2-8 °C, 24m, 2nd of 2 vials
[20] = fridge 2-8 °C, 24h, 1st of 2 vials
[21] = fridge 2-8 °C, 24h, 2nd of 2 vials
[22] = fridge 2-8 °C, 14d, 1st of 2 vials
[23] = fridge 2-8 °C, 14d, 2nd of 2 vials

(Pro-Phe-Gly-Nle-Lys-βAla)3 [FIB One]
deaths, clinical signs, body weight, food consumption, clinical or anatomic pathology (Crl:WI(Han) rats): no deaths, no adverse clinical signs and no effects of treatment
Respiratory Rate (patients; Hour 1, mean (s.d.), baseline 16 (1)): 16 (2) bpm
Temperature (patients; Hour 1, mean (s.d.), baseline 36.6 (0.5)): 36.4 (0.4) C
Heart Rate (patients; Hour 1, mean (s.d.), baseline 76 (13)): 69 (13) bpm
Oxygen Saturations (patients; Hour 1, mean (s.d.), baseline 96 (1)): 97 (2) %
Systolic BP (patients; Hour 1, mean (s.d.), baseline 142 (22)): 124 (20) mmHg
Heart Rate (patients; Hour 2, mean (s.d.)): 67 (18) bpm
Oxygen Saturations (patients; Hour 2, mean (s.d.)): 97 (2) %
Respiratory Rate (patients; Hour 2, mean (s.d.)): 17 (1) bpm
Systolic BP (patients; Hour 2, mean (s.d.)): 124 (18) mmHg
Temperature (patients; Hour 2, mean (s.d.)): 36.4 (0.6) C
Heart Rate (patients; Hour 3, mean (s.d.)): 71 (12) bpm
Oxygen Saturations (patients; Hour 3, mean (s.d.)): 96 (2) %
Respiratory Rate (patients; Hour 3, mean (s.d.)): 16 (1) bpm
Systolic BP (patients; Hour 3, mean (s.d.)): 122 (32) mmHg
Temperature (patients; Hour 3, mean (s.d.)): 36.5 (0.4) C
Heart Rate (patients; Hour 4, mean (s.d.)): 77 (14) bpm
Oxygen Saturations (patients; Hour 4, mean (s.d.)): 96 (2) %
Respiratory Rate (patients; Hour 4, mean (s.d.)): 16 (1) bpm
Systolic BP (patients; Hour 4, mean (s.d.)): 125 (17) mmHg
Temperature (patients; Hour 4, mean (s.d.)): 36.8 (0.4) C
clinically significant variation of clinical observations (patients; between baseline and point of discharge from study (hour 4)): no clinically significant variation
degradation in aqueous formulation of the drug product (HPLC traces) ([1]; after 24 months, stored at 2-8°C): no degradation
Conc. [1, 4]: 80.16 µg per 5mL
Conc. [1, 5]: 77.20 µg per 5mL
Conc. [1, 6]: 78.87 µg per 5mL
Conc. [1, 7]: 72.63 µg per 5mL
Conc. [1, 8]: 64.94 µg per 5mL
Conc. [1, 9]: 72.74 µg per 5mL
Conc. [1, 10]: 70.54 µg per 5mL
Conc. [1, 11]: 66.27 µg per 5mL
Conc. [1, 12]: 62.55 µg per 5mL
Conc. [1, 13]: 67.69 µg per 5mL
pH [1, 14]: 7.5
pH [1, 15]: 7.5
Conc. [1, 14]: 60.40 µg per 5mL
Conc. [1, 15]: 57.67 µg per 5mL
pH [1, 16]: 7.5
pH [1, 17]: 7.5
Conc. [1, 16]: 65.38 µg per 5mL
Conc. [1, 17]: 59.62 µg per 5mL
pH [1, 18]: 7.5
pH [1, 19]: 7.5
Conc. [1, 18]: 58.4 µg per 5mL
Conc. [1, 19]: 58.4 µg per 5mL
Conc. [1, 20]: 81.63 µg per 5mL
Conc. [1, 21]: 82.28 µg per 5mL
Conc. [1, 22]: 76.85 µg per 5mL
Conc. [1, 23]: 84.60 µg per 5mL
pH ([1]; timepoint 0): 7.5
∆% [1, 4]: -10.9%
∆% [1, 5]: -14.2%
∆% [1, 6]: -12.4%
∆% [1, 7]: -19.3%
∆% [1, 8]: -27.8%
∆% [1, 9]: -19.2%
∆% [1, 10]: -21.6%
∆% [1, 11]: -26.4%
∆% [1, 12]: -30.5%
∆% [1, 13]: -24.8%
∆% [1, 14]: -32.9%
∆% [1, 15]: -35.9%
∆% [1, 16]: -27.3%
∆% [1, 17]: -33.8%
∆% [1, 18]: -35.1%
∆% [1, 19]: -35.1%
∆% [1, 20]: -9.3%
∆% [1, 21]: -8.6%
∆% [1, 22]: -14.6%
∆% [1, 23]: -6.1%
Total imp. RRT(%) [1, 4]: ND/NQ ND/NQ
Total imp. RRT(%) [1, 5]: ND/NQ ND/NQ
Total imp. RRT(%) [1, 6]: ND/NQ ND/NQ
Total imp. RRT(%) [1, 7]: ND/NQ ND/NQ
Total imp. RRT(%) [1, 8]: ND/NQ ND/NQ
Total imp. RRT(%) [1, 9]: ND/NQ ND/NQ
Total imp. RRT(%) [1, 10]: ND/NQ ND/NQ
Total imp. RRT(%) [1, 11]: ND/NQ ND/NQ
Total imp. RRT(%) [1, 12]: ND/NQ ND/NQ
Total imp. RRT(%) [1, 13]: ND/NQ ND/NQ
Total imp. RRT(%) [1, 14]: ND/NQ ND/NQ
Total imp. RRT(%) [1, 15]: ND/NQ ND/NQ
Total imp. RRT(%) [1, 16]: ND/NQ ND/NQ
Total imp. RRT(%) [1, 17]: ND/NQ ND/NQ
Total imp. RRT(%) [1, 18]: ND/NQ ND/NQ
Total imp. RRT(%) [1, 19]: ND/NQ ND/NQ
Total imp. RRT(%) [1, 20]: ND/NQ ND/NQ
Total imp. RRT(%) [1, 21]: ND/NQ ND/NQ
Total imp. RRT(%) [1, 22]: ND/NQ ND/NQ
Total imp. RRT(%) [1, 23]: ND/NQ ND/NQ
Adverse Events ([2]; Part A, one line per patient DO01-DO08, FIB One microdose <100 μg): Nil and Haemoptysis and Cough and Fever
Adverse Events ([2]; Part B, one line per patient DO09-DO17, FIB One with or without AZD1236 via TLBC, within 24h post procedure): Nil and Cough and Cough Fever and Haemoptysis
significant adverse events ([2]; eight patients, endobronchial FIB One bolus): no significant adverse events
alveolar FCFM fluorescent signal following endobronchial delivery [3]: increased fluorescent signal
